Laboratory results as given in the supplement of paper PMC11865577.

Assays:
Assay in all cases: pull-down binding Z-score (relative to library population); higher = stronger binding
[1] = test system: G-clamp-N3 (biotin conjugate); settings: RNA library: Library-1 (pre-miRNA loops + repeats)
How it was run: (§1)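 To score binding, a beads-only signal was subtracted, barcoded replicate probes were averaged with the highest and lowest dropped, and the value was converted to a Z-score using the library mean and standard deviation. The input was 1 μg of Cy5- or Cy3-end-labelled RNA library, heat-folded in phosphate/NaCl/KCl buffer and mixed for 60 min at 25 °C with streptavidin beads carrying 100 pmol of biotin-conjugated small molecule. Bound RNA was eluted in hot SDS and hybridised to a DNA barcode microarray at 55.5 °C for 20 h.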

[2] = test system: TO-3-N3 (biotin conjugate); settings: RNA library: Library-2
How it was run: as §1

[3] = test system: TO-3-N3-2 (biotin conjugate); settings: RNA library: Library-2
How it was run: as §1

TO-N3 (biotin conjugate) = settings: RNA library: Library-2
How it was run: as §1

[4] = test system: TO-N3-2 (biotin conjugate); settings: RNA library: Library-2
How it was run: as §1

| Sequence | pull-down binding Z-score [1] | pull-down binding Z-score [2] | pull-down binding Z-score [3] | pull-down binding Z-score (TO-N3 (biotin conjugate)) | pull-down binding Z-score [4] |
| --- | --- | --- | --- | --- | --- |
| GACGGUGGGGGCCACGCUGACAGCCGC [hsa-mir-6804] | 1.9 | 2.01 | 0.752 | 2.24 | 1.89 |
| GACGUCCAAUCUCUUUGGGACGCC [hsa-mir-2682] | 2.24 | 0.551 | -0.309 | 0.419 | -0.436 |
| GACGUGAAGGGACCACAUCCCGCUUCAUGUC [hsa-mir-4697] | -0.0598 | 0.541 | -0.362 | 0.374 | 0.229 |
| GACUGCUCAAGGUCAAAGGGGUC [hsa-mir-3918] | 2.12 | 0.174 | 0.119 | 0.367 | 0.66 |
| GACUGGACAACAUGAUGAGCCCAAACCAAUC [hsa-mir-5092] | -1.85 | -0.245 | 0.166 | 0.0433 | 0.433 |
| GACUUCCAUGACAUGAAAUAGGAAGUC [hsa-mir-616] | 0.351 | -0.453 | -0.183 | -1.12 | -0.705 |
| GACUUGAGAUUAUAGUC [hsa-mir-3685] | -0.369 | 0.268 | -0.13 | -0.0763 | -0.546 |
| GACUUUUCUAUUUUCCAAAAGC [hsa-mir-423] | -0.657 | -0.475 | -0.142 | -0.568 | -0.573 |
| GAGAAACUUGAGGUCUCUGGGAGUUGCUUAAACCAGUUGACCGUAACCUGGCCAGAGAAUUCUGAUAGUGUC [hsa-mir-6740] | 1.09 | -0.13 | -0.00402 | 0.571 | 1.32 |
| GAGAACUCACGGUGCCUGUGGUUCGA [hsa-mir-3125] | -0.479 | -0.41 | -0.203 | 0.312 | 1.49 |
| GAGACAACUUCCCAGUCUC [hsa-mir-6717] | -0.0467 | -0.96 | -0.519 | -1.17 | -0.848 |
| GAGACACCCGCUACCUGGUGUU [hsa-mir-4321] | -0.619 | -0.271 | -0.213 | -0.0464 | 0.471 |
| GAGACACUC [hsa-mir-6126] | -0.909 | -0.431 | -0.578 | -0.502 | -0.469 |
| GAGACGCUUUUAAAGUCUC [hsa-mir-3926-2] | 0.131 | -0.631 | -0.552 | -0.855 | -1.22 |
| GAGACUGCCCAAAGACUCUUCAGUAUC [hsa-mir-2681] | -0.411 | 0.782 | 0.272 | 0.738 | 0.223 |
| GAGACUUAGAAAUCCCUAAGUCUC [hsa-mir-3921] | 0.443 | -0.258 | -0.246 | -0.761 | -0.875 |
| GAGACUUUAAAAGCGUCUC [hsa-mir-3926-1] | 0.184 | -0.747 | -0.343 | -0.993 | -1.01 |
| GAGACUUUGUGAUUUGUCUCCAAAGCCUC [hsa-mir-6862-2_6862-1] | -1.06 | 0.202 | -0.468 | 0.0513 | -0.157 |
| GAGAGAGUGCACAGCCAGCUCAGGGAUUAAAGCUCUUUCUCUCUCUCUC [hsa-mir-7110] | -0.385 | -0.181 | 0.535 | 0.311 | 1.09 |
